In patent US20190077860A1 (EISAI R AND D MANAGEMENT, published 2019):
Where a chain is given by its changes, count along the chain named.

B1: humanized antibody No. 143 (antibody, human IgG2)
heavy: QIQLVQSGSELKKPGASVKVSCKASGYTFTDYSMHWVRQAPGQGLKWMGWINTETGEPTYADDFKGRFVFSLDTSVSTAYLQISSLKAEDTAVYYCARIPLYYYGSRYWYFDVWGQGTTVTVSSASTKGPSVFPLAPSSRSTSESTAALGCLVKDYFPEPVTVSWNSGALTSGVHTFPAVLQSSGLYSLSSVVTVPSSNFGTQTYTCNVDHKPSNTKVDKTVERKSCVECPPCPAPPAAAPSVFLFPPKPKDTLMISRTPEVTCVVVDVSHEDPEVQFNWYVDGVEVHNAKTKPREEQFNSTFRVVSVLTVVHQDWLNGKEYKCKVSNKGLPAPIEKTISKTKGQPREPQVYTLPPSREEMTKNQVSLTCLVKGFYPSDIAVEWESNGQPENNYKTTPPMLDSDGSFFLYSKLTVDKSRWQQGNVFSCSVMHEALHNHYTQKSLSLSPG
light: DIQMTQSPSSLSASVGDRVTITCRASENIYRNLAWYQQKPGKAPKLLVYAATNLADGVPSRFSGSGSGTDYTLTISSLQPEDFATYYCQHFWGTPWTFGQGTKVEIKRTVAAPSVFIFPPSDEQLKSGTASVVCLLNNFYPREAKVQWKVDNALQSGNSQESVTEQDSKDSTYSLSSTLTLSKADYEKHKVYACEVTHQGLSSPVTKSFNRGEC
notes: human Ig kappa; also called L1-4/HK4
B2: humanized antibody No. 134 (antibody, human IgG2)
heavy: B1 heavy with I2V, D62Q, D63G, K65T
light: EIVMTQSPATLSVSPGERATLSCRASENIYRNLAWYQQKPGQSPRLLIYAATNLADGIPARFSGSGSGTEYTLTISSLQSEDFAVYYCQHFWGTPWTFGQGTKVEIKRTVAAPSVFIFPPSDEQLKSGTASVVCLLNNFYPREAKVQWKVDNALQSGNSQESVTEQDSKDSTYSLSSTLTLSKADYEKHKVYACEVTHQGLSSPVTKSFNRGEC
notes: human Ig kappa; also called L2-4/HA2
B3: humanized antibody No. 155 (antibody, human IgG2)
heavy: B1 heavy
light: B1 light with V48L, P80S
notes: human Ig kappa; also called L1-5/HK4
B4: humanized antibody No. 160 (antibody, human IgG2)
heavy: B1 heavy
light: B1 light with K45Q, V48L
notes: human Ig kappa; also called L1-6/HK4
B5: humanized antibody No. 136 (antibody, human IgG2)
heavy: B1 heavy with I2V
light: B2 light
notes: human Ig kappa; also called L2-4/HK2
B6: humanized antibody No. 152 (antibody, human IgG2)
heavy: B1 heavy with I2V, K46E, D62Q, D63G, K65T
light: B1 light with V48L, P80S
notes: human Ig kappa; also called L1-5/HA1
B7: humanized antibody No. 158 (antibody, human IgG2)
heavy: B1 heavy with I2V, D62Q, D63G, K65T
light: B1 light with K45Q, V48L
notes: human Ig kappa; also called L1-6/HA2
B8: humanized antibody No. 132 (antibody, human IgG2)
heavy: B1 heavy with D62Q, D63G, K65T
light: B2 light
notes: human Ig kappa; also called L2-4/HA4
B9: humanized antibody No. 137 (antibody, human IgG2)
heavy: B1 heavy
light: B2 light
notes: human Ig kappa; also called L2-4/HK4
B10: humanized antibody No. 156 (antibody, human IgG2)
heavy: B1 heavy with D62Q, D63G, K65T
light: B1 light with K45Q, V48L
notes: human Ig kappa; also called L1-6/HA4
B11: humanized antibody No. 159 (antibody, human IgG2)
heavy: B1 heavy with I2V
light: B1 light with K45Q, V48L
notes: human Ig kappa; also called L1-6/HK2
B12: humanized antibody No. 157 (antibody, human IgG2)
heavy: B1 heavy with I2V, K46E, D62Q, D63G, K65T
light: B1 light with K45Q, V48L
notes: human Ig kappa; also called L1-6/HA1
B13: humanized antibody No. 135 (antibody, human IgG2)
heavy: B1 heavy with I2V, K46E
light: B2 light
notes: human Ig kappa; also called L2-4/HK1
B14: humanized antibody No. 151 (antibody, human IgG2)
heavy: B1 heavy with D62Q, D63G, K65T
light: B1 light with V48L, P80S
notes: human Ig kappa; also called L1-5/HA4
B15: humanized antibody No. 144 (antibody, human IgG2)
heavy: B1 heavy with I2V, K46E
light: B1 light with K45Q, V48L
notes: human Ig kappa; also called L1-6/HK1
B16: humanized antibody No. 154 (antibody, human IgG2)
heavy: B1 heavy with I2V, K46E
light: B1 light with V48L, P80S
notes: human Ig kappa; also called L1-5/HK1
B17: humanized antibody No. 133 (antibody, human IgG2)
heavy: B1 heavy with I2V, K46E, D62Q, D63G, K65T
light: B2 light
notes: human Ig kappa; also called L2-4/HA1
B18: humanized antibody No. 153 (antibody, human IgG2)
heavy: B1 heavy with I2V, D62Q, D63G, K65T
light: B1 light with V48L, P80S
notes: human Ig kappa; also called L1-5/HA2
B19: humanized antibody No. 145 (antibody, human IgG2)
heavy: B1 heavy with I2V
light: B1 light with V48L, P80S
notes: human Ig kappa; also called L1-5/HK2
B20: humanized antibody No. 94 (antibody, human IgG1, kappa)
heavy: QVQLVQSGSELKKPGASVKVSCKASGYTFTDYSMHWVRQAPGQGLKWMGWINTETGEPTYAQGFTGRFVFSLDTSVSTAYLQISSLKAEDTAVYYCARIPLYYYGSRYWYFDVWGQGTTVTVSSASTKGPSVFPLAPSSKSTSGGTAALGCLVKDYFPEPVTVSWNSGALTSGVHTFPAVLQSSGLYSLSSVVTVPSSSLGTQTYICNVNHKPSNTKVDKRVEPKSCDKTHTCPPCPAPPAAAPSVFLFPPKPKDTLMISRTPEVTCVVVDVSHEDPEVQFNWYVDGVEVHNAKTKPREEQFNSTFRVVSVLTVVHQDWLNGKEYKCKVSNKGLPAPIEKTISKTKGQPREPQVYTLPPSREEMTKNQVSLTCLVKGFYPSDIAVEWESNGQPENNYKTTPPMLDSDGSFFLYSKLTVDKSRWQQGNVFSCSVMHEALHNHYTQKSLSLSPG
light: B2 light
notes: as for B2
B21: humanized antibody No. 73 (antibody, human IgG1, kappa)
heavy: B20 heavy with V2I, Q62D, G63D, T65K
light: B2 light
notes: as for B9
B22: humanized antibody No. 71 (antibody, human IgG1, kappa)
heavy: B20 heavy with V2I
light: B2 light
notes: as for B8

Biological target: T1, human EphB1 extracellular region-SEAP-His protein (human, UniProt P54762 18-540)
T1 construct: extracellular domain; also called hEphB1-SEAP-His
T1 sequence (looked up): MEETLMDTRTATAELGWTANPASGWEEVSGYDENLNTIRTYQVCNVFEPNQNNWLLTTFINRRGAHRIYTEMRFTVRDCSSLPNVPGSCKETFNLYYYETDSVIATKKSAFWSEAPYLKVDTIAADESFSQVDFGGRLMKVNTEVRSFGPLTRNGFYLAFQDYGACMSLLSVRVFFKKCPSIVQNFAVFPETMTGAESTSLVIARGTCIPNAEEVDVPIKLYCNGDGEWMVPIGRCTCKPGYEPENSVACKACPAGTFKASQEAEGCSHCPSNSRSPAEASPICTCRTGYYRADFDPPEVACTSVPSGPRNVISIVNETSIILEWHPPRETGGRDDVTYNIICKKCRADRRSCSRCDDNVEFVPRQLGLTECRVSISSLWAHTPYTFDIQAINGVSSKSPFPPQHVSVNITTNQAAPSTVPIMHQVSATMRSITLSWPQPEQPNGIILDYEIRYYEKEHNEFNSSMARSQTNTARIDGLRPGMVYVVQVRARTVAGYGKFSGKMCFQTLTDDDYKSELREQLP
Experiment: ELISA

Binder | A450 as % of hEphA4-SEAP-His
B1 | 5.9%
B2 | 5.1%
B3 | 5.4%
B4 | 6.1%
B5 | 5.2%
B6 | 5.9%
B7 | 6.2%
B8 | 4.8%
B9 | 5.8%
B10 | 5.4%
B11 | 5.3%
B12 | 6.1%
B13 | 5.1%
B14 | 6.8%
B15 | 5.7%
B16 | 6.3%
B17 | 4.6%
B18 | 6%
B19 | 6.5%
B20 | 6.7%
B21 | 5.7%
B22 | 5.4%

Biological target: T2, human EphA4 extracellular region-SEAP-His protein (human, UniProt P54764 20-547)
T2 construct: also called hEphA4-SEAP-His
T2 sequence (P54764 20-547): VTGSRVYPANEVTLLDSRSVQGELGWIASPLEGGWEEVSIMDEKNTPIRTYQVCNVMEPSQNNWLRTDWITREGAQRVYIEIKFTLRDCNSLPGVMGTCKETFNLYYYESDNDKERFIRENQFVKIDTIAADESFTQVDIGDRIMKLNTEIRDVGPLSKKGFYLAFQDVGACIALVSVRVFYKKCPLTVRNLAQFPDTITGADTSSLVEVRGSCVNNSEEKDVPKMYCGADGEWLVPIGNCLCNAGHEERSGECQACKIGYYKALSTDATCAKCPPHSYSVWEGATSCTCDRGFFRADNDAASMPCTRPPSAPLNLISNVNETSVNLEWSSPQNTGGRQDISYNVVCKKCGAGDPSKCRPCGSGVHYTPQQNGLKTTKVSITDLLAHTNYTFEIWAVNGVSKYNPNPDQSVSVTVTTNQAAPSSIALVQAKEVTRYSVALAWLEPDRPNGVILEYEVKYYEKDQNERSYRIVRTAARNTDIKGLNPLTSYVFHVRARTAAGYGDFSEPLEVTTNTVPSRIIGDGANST
Experiment: SPR, Ab captured
How it was run: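 Antibodies captured (~30–60 RU) on a protein A chip, or for antibody A on immobilized rat anti-mouse IgG1, in HBS-EP. Human EphA4 extracellular region-SEAP-His at 0.6–50 nM injected in ascending order without regeneration, with 120 s association and 900 s dissociation. KD=kd/ka from 1:1 binding model fits.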

Binder | Kd | koff | kon
B1 | 1.5 nM | 0.00051 s⁻¹ | 350000 M⁻¹ s⁻¹
B2 | 1.2 nM | 0.00032 s⁻¹ | 280000 M⁻¹ s⁻¹
B3 | 1.9 nM | 0.00064 s⁻¹ | 330000 M⁻¹ s⁻¹
B4 | 1.9 nM | 0.00061 s⁻¹ | 320000 M⁻¹ s⁻¹
B5 | 1.4 nM | 0.00039 s⁻¹ | 290000 M⁻¹ s⁻¹
B6 | 2 nM | 0.00082 s⁻¹ | 400000 M⁻¹ s⁻¹
B7 | 1.9 nM | 0.00061 s⁻¹ | 310000 M⁻¹ s⁻¹
B8 | 1.2 nM | 0.00031 s⁻¹ | 270000 M⁻¹ s⁻¹
B9 | 1.3 nM | 0.00039 s⁻¹ | 290000 M⁻¹ s⁻¹
B10 | 1.6 nM | 0.00056 s⁻¹ | 310000 M⁻¹ s⁻¹
B11 | 2 nM | 0.00061 s⁻¹ | 310000 M⁻¹ s⁻¹
B12 | 2 nM | 0.00068 s⁻¹ | 350000 M⁻¹ s⁻¹
B13 | 1.3 nM | 0.0004 s⁻¹ | 320000 M⁻¹ s⁻¹
B14 | 1.7 nM | 0.00053 s⁻¹ | 320000 M⁻¹ s⁻¹
B15 | 2 nM | 0.00078 s⁻¹ | 400000 M⁻¹ s⁻¹
B16 | 2.2 nM | ~0.00085 s⁻¹ | 390000 M⁻¹ s⁻¹
B17 | 1.1 nM | 0.00032 s⁻¹ | 300000 M⁻¹ s⁻¹
B18 | 2.1 nM | 0.0006 s⁻¹ | 290000 M⁻¹ s⁻¹
B19 | 2 nM | 0.00065 s⁻¹ | 330000 M⁻¹ s⁻¹
B20 | 0.95 nM | 0.00024 s⁻¹ | 260000 M⁻¹ s⁻¹
B21 | 0.93 nM | 0.00027 s⁻¹ | 290000 M⁻¹ s⁻¹
B22 | 0.82 nM | 0.00023 s⁻¹ | 280000 M⁻¹ s⁻¹

Biological target: T2, human EphA4 extracellular …
Experiment: competition ELISA, competitor human Ephrin A5-Fc
How it was run: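 Anti-alkaline phosphatase-coated plates captured EphA4-SEAP-His (10 nM final), then antibody (0–3000 nM serial dilutions) and biotinylated Ephrin A5-Fc (0.7 nM final) were co-added for 1 h at room temperature. Bound ligand detected with HRP-streptavidin and TMBZ, stopped with 1N H₂SO₄, A450 read.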

Binder | IC50
B1 | 5.3 nM
B2 | 3 nM
B3 | 2.4 nM
B4 | 2.2 nM
B5 | 2.5 nM
B6 | 2 nM
B7 | 2.8 nM
B8 | 3.1 nM
B9 | 2.5 nM
B10 | 2.5 nM
B11 | 2.6 nM
B12 | 2.6 nM
B13 | 2.5 nM
B14 | 2 nM
B15 | 3.6 nM
B16 | 2.5 nM
B17 | 3 nM
B18 | 2.3 nM
B19 | 3.7 nM
B20 | 2.7 nM
B21 | 2.4 nM
B22 | 2.5 nM
